Data taken from paper PMC2139800 (The Journal of Cell Biology, 1997).

Target: F-actin (unlabeled) (rabbit, UniProt P68135 1-377)
Experiment: co-sedimentation

stoichiometry N: ~500 actin molecules per His6–l-afadin-C molecule
B1: His6–l-afadin-C (aa 1631–1829) (domain or fragment)
chain: DRVRQEEDGRHQEEERVKRDAEEKRRQEEGYYSRLEAERRRQHEEAARRLLEPEEPGLSRPPLPQDYEPPSQSSAPSAPPPPPQRNASYLKTQVLSPDSLFTAKFVAYDDDDEEENYVPAGPNSYSGSAGTTAGTYDAPRDTREKLSRSQDADLPGSSGAPENLTFRERQRLFSQGQDVSDKVKASRKLTELENELNTK
